Assay results as given in patent US20210347848A1 (ALX ONCOLOGY, published 2021).
Changes are numbered by the printed parent chain. Like-named read-outs stand apart in the source and are kept apart here.

B1: Decoy polypeptide R (Fc fusion)
chain: EEELQMIQPEKLLLVTVGKTATLHCTVTSLLPVGPVLWFRGVGPGRELIYNQKEGHFPRVTTVSDLTKRNNMDFSIRISSITPADVGTYYCVKFRKGSPENVEFKSGPGTEMALGAKPSDKTHTCPPCPAPEAAGAPSVFLFPPKPKDTLMISRTPEVTCVVVDVSHEDPEVKFNWYVDGVEVHNAKTKPREEQYASTYRVVSVLTVLHQDWLNGKEYKCKVSNKALPAPIEKTISKAKGQPREPQVYTLPPSREEMTKNQVSLTCLVKGFYPSDIAVEWESNGQPENNYKTTPPVLDSDGSFFLYSKLTVDKSRWQQGNVFSCSVMHEALHNHYTQKSLSLSPG
notes: also called wild type SIRPγ
B2: Decoy polypeptide I (Fc fusion)
chain: B1 chain with M6I, V27I, L31F, V36I, L37Q, E47V, K53R, H56P, L66G, N101D
B3: Decoy polypeptide K (Fc fusion)
chain: B1 chain with M6I, V27L, V36I, E47V, K53R, E54D, H56P, L66G, S98N, N101D
B4: Decoy polypeptide M (Fc fusion)
chain: B1 chain with M6I, V27I, L31F, V33I, V36I, E47V, E54D, H56P, L66G, N101D
B5: Decoy polypeptide T (Fc fusion)
chain: EEELQVIQPDKSISVAAGESATLHCTVTSLIPVGPIQWFRGAGPGRELIYNQKEGHFPRVTTVSDLTKRNNMDFSIRISNITPADAGTYYCVKFRKGSPDHVEFKSGAGTELSVRAKPSDKTHTCPPCPAPEAAGAPSVFLFPPKPKDTLMISRTPEVTCVVVDVSHEDPEVKFNWYVDGVEVHNAKTKPREEQYASTYRVVSVLTVLHQDWLNGKEYKCKVSNKALPAPIEKTISKAKGQPREPQVYTLPPSREEMTKNQVSLTCLVKGFYPSDIAVEWESNGQPENNYKTTPPVLDSDGSFFLYSKLTVDKSRWQQGNVFSCSVMHEALHNHYTQKSLSLSPG
notes: also called wild type SIRPβ2
B6: Decoy polypeptide E (Fc fusion)
chain: EEELQIIQPEKLLLVTVGKTATLHCTITSLFPVGPIQWFRGAGPGRVLIYNQRDGPFPRVTTVSDGTKRNNMDFSIRISSITPADVGTYYCIKFRKGTPEDVEFKSGPGTEMALGAKPSDKTHTCPPCPAPEAAGAPSVFLFPPKPKDTLMISRTPEVTCVVVDVSHEDPEVKFNWYVDGVEVHNAKTKPREEQYASTYRVVSVLTVLHQDWLNGKEYKCKVSNKALPAPIEKTISKAKGQPREPQVYTLPPSREEMTKNQVSLTCLVKGFYPSDIAVEWESNGQPENNYKTTPPVLDSDGSFFLYSKLTVDKSRWQQGNVFSCSVMHEALHNHYTQKSLSLSPG
B7: Decoy polypeptide S (Fc fusion)
chain: EDELQVIQPEKSVSVAAGESATLRCAMTSLIPVGPIMWFRGAGAGRELIYNQKEGHFPRVTTVSELTKRNNLDFSISISNITPADAGTYYCVKFRKGSPDDVEFKSGAGTELSVRAKPSDKTHTCPPCPAPEAAGAPSVFLFPPKPKDTLMISRTPEVTCVVVDVSHEDPEVKFNWYVDGVEVHNAKTKPREEQYASTYRVVSVLTVLHQDWLNGKEYKCKVSNKALPAPIEKTISKAKGQPREPQVYTLPPSREEMTKNQVSLTCLVKGFYPSDIAVEWESNGQPENNYKTTPPVLDSDGSFFLYSKLTVDKSRWQQGNVFSCSVMHEALHNHYTQKSLSLSPG
notes: also called wild type SIRPβ1
B8: Decoy polypeptide N (Fc fusion)
chain: B6 chain with I6M, T98I

Tests used:
human CD47 [1] = biological target: T1, human CD47 (human, UniProt Q08722 19-135); assay: SPR, decoy captured on biotinylated Protein A, CD47 as analyte, 25 C
T1 construct: Soluble analyte in SPR; also called hCD47
Protocol: (§1) The binding affinities each decoy polypeptides for CD47 from various species (e.g., human CD47, cynomolgus monkey CD47, and mouse CD47) were determined using indirect capture via biotinylated Protein A (via NLC chip). All experiments were performed at 25° C. using a Surface Plasmon Resonance (SPR)-based ProteOn XPR36 biosensor (BioRad, Inc., Hercules, Calif.). The running buffer was PBS at pH 7.4 with 0.01% Tween-20 (PBST+). All analytes were used at their nominal concentrations as determined by A₂₈₀ absorbance and using their molar calculated extinction coefficients.
(§2) As a first step, 15 μg/mL biotinylated protein A (Thermofisher) was injected at 30 μL/min for 120 seconds over the NLC chip to obtain an immobilization response of about 1000-1200 RUs. Next, decoy polypeptides (about 100-160 nM) were injected for 80 seconds at 30 μL/min. The CD47 analytes (from human, cynomolgus monkey, and mouse) were subsequently injected in a “one-shot” kinetic mode at nominal concentrations of 100 nM, 33 nM, 11 nM, 3.7 nM, 1.2 nM, and 0 nM. Association times were monitored for 60 seconds at 25 μL/min, and dissociation times were monitored for 500 seconds. The surfaces were regenerated with a 2:1 v/v blend of Pierce IgG elution buffer/4M NaCl. Biosensor data were double-referenced by subtracting the interspot data (containing no immobilized protein) from the reaction spot data (immobilized protein) and then subtracting the response of a buffer “blank” analyte injection from that of an analyte injection. Double-referenced data were fit globally to a simple Langmuir model and the KD value was calculated from the ratio of the apparent kinetic rate constants (KD=kd/kₐ).

mouse CD47 = biological target: T2, mouse CD47 (mouse, UniProt Q61735 19-140, limits assumed); assay: SPR, decoy captured on biotinylated Protein A (NLC chip), CD47 as analyte
T2 construct: Soluble analyte in SPR; construct not described
T2 sequence (looked up): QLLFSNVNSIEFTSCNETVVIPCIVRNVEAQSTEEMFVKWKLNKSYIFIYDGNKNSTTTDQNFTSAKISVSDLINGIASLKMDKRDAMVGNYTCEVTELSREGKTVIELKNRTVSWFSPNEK

cynomolgus monkey CD47 = biological target: T3, cynomolgus monkey CD47 (cynomolgus monkey, UniProt A0A2K5X523 19-135); assay: as above
T3 construct: Soluble analyte in SPR; construct not described; also called Cyno CD47

human CD47 [2] = biological target: T1, human CD47; assay: SPR, decoy captured on biotinylated Protein A, CD47 as analyte, 25 C; remark: listed apart in the source
Protocol: as §1, §2

human CD47 [3] = biological target: T1, human CD47; assay: SPR; the reference itself (wild type SIRPγ D1 domain)
human CD47 [4] = biological target: T1, human CD47; assay: SPR, decoy captured on biotinylated Protein A (NLC chip), CD47 as analyte
Protocol: as §1, §2

human CD47 [5] = biological target: T1, human CD47; assay: as above; remark: listed apart in the source

T1 sequence (Q08722 other isoform, or with tags, fused parts or gaps limits assumed): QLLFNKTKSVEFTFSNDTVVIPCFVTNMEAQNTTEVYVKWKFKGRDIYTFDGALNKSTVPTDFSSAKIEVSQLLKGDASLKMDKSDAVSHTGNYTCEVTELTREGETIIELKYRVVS

Binder	binding result (mouse CD47)	binding result (cynomolgus monkey CD47)	binding result (human CD47 [4])	also measured
B1	no binding (tested: CD47 analyte up to 100 nM)	no binding (tested: CD47 analyte up to 100 nM)		Kd (human CD47 [1]): 2190 nM; Kd (human CD47 [2]): 2190 nM; Fold improvement in KD vs wild type (human CD47 [3]): 1 fold
B2			no binding (tested: CD47 analyte up to 100 nM)	
B3			no binding (tested: CD47 analyte up to 100 nM)	
B4			no binding (tested: CD47 analyte up to 100 nM)	
B5	no binding (tested: CD47 analyte up to 100 nM)	no binding (tested: CD47 analyte up to 100 nM)		binding result (human CD47 [5]): no binding (tested: CD47 analyte up to 100 nM)
B6			no binding (tested: CD47 analyte up to 100 nM)	
B7	no binding (tested: CD47 analyte up to 100 nM)	no binding (tested: CD47 analyte up to 100 nM)		binding result (human CD47 [5]): no binding (tested: CD47 analyte up to 100 nM)
B8			no binding (tested: CD47 analyte up to 100 nM)	
